Data taken from US6949506B2, “Relaxin-like factor and methods and uses thereof” (BAS Medical, Inc., priority 1995, dated 2005).
Positions of bridges follow the written chain, without caps; N, C: chain ends. Chains are numbered I, II in the order given. No end group written: not given here.

Assays:
[1] = system: collagen expression, rheumatoid synovial fibroblasts (Strain No. RSF64); assay: Inhibition of collagen expression by synovial fibroblasts; format: cell-based, human; conditions: 100 ng/ml (each); TGF-β-treated fibroblasts
Method: The method for detecting and measuring collagen formation in the presence of relaxin described in Unemori and Amento, 1990, J. Biol. Chem. 265:10681-685 has been modified as follows to determine the ability of RLF, in vitro, to modulate the expression of collagen. Materials and Methods. Rheumatoid synovial fibroblasts (Strain No. […] The cells were simultaneously biosynthetically labelled with ^3H=[…] μCi/ml) in the presence of ascorbate and BAPN. After 24 hours, the conditioned media were collected and electrophoresed on 4-12% polyacrylamide gels (NOVEX) under reducing conditions. Gels were enhanced, dried, and exposed to X-ray films for 1-2 weeks. Collagen bands were identified on the X-ray films as bacterial collagenase-sensitive, proline-incorporating bands between 95-200 kDa. Band density was quantified by scanning densitometry and used as estimates of collagen expression.

[2] = target: T1, RLF receptor (brain) (Mus musculus, UniProt Q91ZZ5); assay: Binding assay, mouse brain crude membranes, hRLF tracer
T1 construct: from tissue; host or cells: mouse brain, crude membranes
T1 sequence (Q91ZZ5 whole entry): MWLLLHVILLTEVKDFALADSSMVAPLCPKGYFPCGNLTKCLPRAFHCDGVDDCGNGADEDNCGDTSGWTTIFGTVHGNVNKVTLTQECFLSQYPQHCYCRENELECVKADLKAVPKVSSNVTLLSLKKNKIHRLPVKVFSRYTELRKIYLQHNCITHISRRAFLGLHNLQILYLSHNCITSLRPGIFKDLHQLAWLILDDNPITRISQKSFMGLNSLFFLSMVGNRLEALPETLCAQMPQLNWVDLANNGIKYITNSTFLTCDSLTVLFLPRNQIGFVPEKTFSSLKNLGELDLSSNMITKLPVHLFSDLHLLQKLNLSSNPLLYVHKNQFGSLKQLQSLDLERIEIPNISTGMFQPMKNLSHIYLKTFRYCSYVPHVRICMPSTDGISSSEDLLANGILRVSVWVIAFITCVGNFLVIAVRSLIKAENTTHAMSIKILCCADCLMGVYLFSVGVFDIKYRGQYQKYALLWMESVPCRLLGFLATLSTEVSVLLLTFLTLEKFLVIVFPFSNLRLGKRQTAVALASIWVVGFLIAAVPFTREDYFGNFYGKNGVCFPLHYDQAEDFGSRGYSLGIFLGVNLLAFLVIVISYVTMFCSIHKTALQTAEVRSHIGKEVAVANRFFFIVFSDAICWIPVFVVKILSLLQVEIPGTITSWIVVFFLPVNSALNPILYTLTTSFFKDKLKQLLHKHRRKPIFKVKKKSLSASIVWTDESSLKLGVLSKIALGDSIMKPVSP
Method: (§1) Relaxin-binding assays were performed as described in Yang, et al., 1992, Endocrinology 130:179-185 and Büllesbach, et al., 1994, Endocrine. 2:1115-1120, using crude membrane preparations of mouse tissue. Mouse brains of 2 mice were collected into 15 ml of chilled buffer (25 mM HEPES, 0.14 M NaCl, 5.7 mM KCI, 0.2 mM phenylmethylsulfonyl-fluoride, and 80 mg/ml soybean trypsin inhibitor, pH 7.5) supplemented with sucrose (0.25 M, final concentration). The tissue was homogenized on ice for 10 s with a Polytron homogenizer (Brinlmann, Westbury, N.Y.) at setting 5. The homogenate was centrifuged at 700 rpm for 10 min at 4° C. and the supernatants were recentrifuged at 10,000×g for 1 h. The pellet was resuspended in 15 ml of ice cold binding buffer, 25 mM HEPES, 0.14 M NaCl, 5.7 mM KCI, 0.2 mM phenylmethylsulfonylfluoride, and 80 mg/ml soybean trypsin inhibitor, pH 7.5, supplemented with 1% bovine serum albumin, and centrifuged for 1 h at 10,000×g. […] The supernatant was discarded, the tip of the vial cut and counted in a γ-counter. Nonspecific binding was determined in the presence of 2 μl/ml of unlabeled competitor (0.33 μM). […]
(§2) Tissue specificity was determined using crude membrane preparations of leg muscles, kidneys, liver. brain, and uterus (of estrogen primed mice). […] Binding was based on protein concentration determined by Lowry. […]

[3] = target: T2, insulin receptor (Homo sapiens, UniProt P06213); assay: Insulin-receptor binding assay on crude membrane preparations of term placenta; conditions: term placenta crude membranes; 125I-iodo-TyrA14 porcine insulin tracer
T2 construct: crude membrane preparations of term placenta; from tissue; host or cells: term placenta, crude membranes
Method: Insulin-receptor binding assays were performed on crude membrane preparations of term placenta, as described in Hock and Hollenberg, 1980, J. Biol. Chem. 255:10731-10736, using ^125I-iodo-Tyr^A14 porcine insulin as tracer according to the method of Linde, et al., 1986, J. Chromatogr. 369:327-339.
The assays were performed in HMS-buffer (25 mM HEPES, 104 mM NaCl, 5 mM MgCl2, 0.2% bovine serum albumin; pH 7.4) in a total volume of 100 μl. Labeled insulin (50,000 cpm/assay, 150 pM) and variable amounts of insulin were incubated with crude membranes for 1 h at room temperature. Thereafter 1 ml of buffer was added, the membranes collected by centrifugation in a microcentrifuge at 14,000 rpm for 5 min, the supernatant discarded, and the tip of the Eppendorf vial cut off and counted in a γ-counter (Minigamma, LKB, Sweden). To determine nonspecific binding unlabeled insulin was used at a concentration of 2 μl/ml (0.33 μM) and nonspecific binding was usually below 10% of the total binding.

[4] = target: T3, RLF receptor (uterus) (Mus musculus, UniProt Q91ZZ5); assay: Binding assay, mouse uterus crude membranes, hRLF tracer
T3 construct: brain, and uterus (of estrogen primed mice); from tissue; host or cells: uterus of estrogen-primed mice, crude membranes
T3 sequence (Q91ZZ5 whole entry): as above
Method: as §1, §2

[5] = target: T4, uterine relaxin receptor (Mus musculus, UniProt Q6R6I7); assay: Relaxin-binding assay, mouse uterus crude membranes, porcine relaxin tracer
T4 construct: brain, and uterus (of estrogen primed mice); from tissue; host or cells: uterus of estrogen-primed mice, crude membranes
T4 sequence (Q6R6I7 1-758): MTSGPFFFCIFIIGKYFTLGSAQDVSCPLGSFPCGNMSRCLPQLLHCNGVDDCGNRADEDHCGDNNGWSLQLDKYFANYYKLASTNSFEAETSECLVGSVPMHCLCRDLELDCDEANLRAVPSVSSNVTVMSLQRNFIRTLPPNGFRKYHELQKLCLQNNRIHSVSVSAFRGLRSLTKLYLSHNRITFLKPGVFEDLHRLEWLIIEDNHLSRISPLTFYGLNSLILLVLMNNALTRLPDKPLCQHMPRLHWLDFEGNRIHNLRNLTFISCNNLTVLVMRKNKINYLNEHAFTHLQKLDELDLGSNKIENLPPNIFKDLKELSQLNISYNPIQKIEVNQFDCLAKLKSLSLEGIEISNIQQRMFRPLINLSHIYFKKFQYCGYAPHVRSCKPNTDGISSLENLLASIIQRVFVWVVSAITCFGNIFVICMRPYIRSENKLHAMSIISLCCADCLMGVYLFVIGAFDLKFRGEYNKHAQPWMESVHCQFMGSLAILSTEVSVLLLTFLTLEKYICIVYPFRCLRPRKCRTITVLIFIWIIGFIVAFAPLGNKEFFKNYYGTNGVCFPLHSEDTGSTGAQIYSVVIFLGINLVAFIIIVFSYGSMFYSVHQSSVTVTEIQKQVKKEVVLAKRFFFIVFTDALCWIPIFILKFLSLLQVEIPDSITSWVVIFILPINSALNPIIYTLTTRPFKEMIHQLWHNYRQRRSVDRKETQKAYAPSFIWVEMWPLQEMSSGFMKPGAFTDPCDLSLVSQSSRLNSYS
Method: as §1
Tissue specificity was determined using crude membrane preparations of leg muscles, kidneys, liver. brain, and uterus (of estrogen primed mice). […] Binding was based on protein concentration determined by Lowry.

50% Binding [2]: 0.3 ng | 50% Binding [4]: 0.3 ng | recognition by the uterine relaxin receptor [5]: barely recognizes | 50% Binding ([5]; tracer pRLX): 10000 ng
Substance: RLF: synthesized human relaxin-like factor, two-chain peptide (A and B chain, SEQ ID NOS:3 and 4), three disulfide links (alpha AAATNPARYCCLSGCTQQDLLTLCPY; beta PTPEMREKLCGHHFVRALVRVCGGPRWSTEA; disulfide I:11-II:10; also: two further disulfide bonds, places not given here)
decrease of TGF-β-stimulated collagen expression [1]: 17% | binding to the insulin receptor [3]: does not bind with any significant degree
